In article PMC2115640 one finds gp135 remaining (%) with the TX-100 cytoskeleton, 48-h cultures and gp135 remaining (%) with the TX-100 cytoskeleton, 72-h cultures data, which are given here for one molecule.

The target of the experiment is TX-100 cytoskeleton. Kind of experiment: detergent extraction.

B1: 135-kD glycoprotein (gp135) (natural protein)
chain: HDGTIIAATSPTSGQPSTELPGGKGLITTAKTIQNTDLAITGEKVMSATVSKGPLPGSSNSVSMTLAPTQKNTVIAPDQDEKVSTNPTIATSDSKGIPDLNKSILPSATNSMKPDTPVTQTAGPGAQGNPGTTVSHMTSENTEQTTSQPPPQVKPSSITPALTSIITPTSPRQPSANSTTLKPPESSSESPDKSHTASSSLGTKVVPSSSLYGTSPTRTSSVTFWGGPQSSSGTPPVPAPTPRPAATSSSTPGISSVPGTTSLPSETESLESPSSESPSQPPKLRPTGPPSSGSSGPAASLPDEGPRSSSTQRAATAPRAPSVPSPTSAQGDDRIKCESPGRLTDKMLLLNLTRSGLCAGNNSDDKLITLLCRAAKATFNPAQDQCHIRLVPIQDTQAVAIKEITVQTNLLPRDVYELLKDKWDELKEVGVSNMKLGDQGPPEETEDRFSMPLIITIVCMASFLLLVAALYGCCHQRLSQRKDQQRLTEELQTVENGYHDNPTLEVMETSSEMQEKKVVNLNGELGDSWIVPLDNLAKDDLDEEEDTHL
Molecule B1 registered a gp135 remaining (%) with the TX-100 cytoskeleton, 48-h cultures of 66.2% and a gp135 remaining (%) with the TX-100 cytoskeleton, 72-h cultures of 53.4%.
